The text below walks through data of patent US20230050380A1 (CHIOME BIOSCIENCE, published 2023).

The target of test [1] is T1, full-length hCDCP1 with N-terminal c-Myc tag (expression vector GS01), on Ba/F3-hCDCP1 cells or … (human, UniProt Q9H5V8 30-836).
T1 construct: also called human CDCP1; hCDCP1 forced expression cells
T1 sequence: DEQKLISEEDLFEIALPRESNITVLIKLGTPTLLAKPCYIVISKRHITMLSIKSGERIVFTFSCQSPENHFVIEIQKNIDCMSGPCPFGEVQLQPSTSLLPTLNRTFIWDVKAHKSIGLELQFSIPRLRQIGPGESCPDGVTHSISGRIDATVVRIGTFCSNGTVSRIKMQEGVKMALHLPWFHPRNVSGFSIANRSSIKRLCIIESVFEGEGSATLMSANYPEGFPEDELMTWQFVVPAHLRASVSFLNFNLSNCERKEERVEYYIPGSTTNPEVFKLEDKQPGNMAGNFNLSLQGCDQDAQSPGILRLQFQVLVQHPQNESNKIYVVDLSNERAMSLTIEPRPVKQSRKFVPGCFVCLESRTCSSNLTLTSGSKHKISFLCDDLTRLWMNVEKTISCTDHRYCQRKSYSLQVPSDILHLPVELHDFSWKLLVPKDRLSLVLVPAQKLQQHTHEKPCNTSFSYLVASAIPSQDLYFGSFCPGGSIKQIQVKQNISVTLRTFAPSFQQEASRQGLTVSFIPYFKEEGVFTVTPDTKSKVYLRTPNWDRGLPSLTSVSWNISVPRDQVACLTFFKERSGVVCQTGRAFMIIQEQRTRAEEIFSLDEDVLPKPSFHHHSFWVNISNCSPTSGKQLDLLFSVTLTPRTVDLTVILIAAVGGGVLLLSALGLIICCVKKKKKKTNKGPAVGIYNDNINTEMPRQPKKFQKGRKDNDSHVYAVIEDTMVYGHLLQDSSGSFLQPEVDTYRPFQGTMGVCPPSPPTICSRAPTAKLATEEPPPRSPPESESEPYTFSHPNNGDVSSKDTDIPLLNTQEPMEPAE
The test is described as follows: flow cytometry on untreated Ba/F3-hCDCP1 cells (comparison of FIG. 8). On the procedure: In order to investigate whether the obtained anti-hCDCP1 mouse-human chimeric antibodies bind to the N-terminal side of the serine protease cleavage site of the hCDCP1 molecules or bind to the transmembrane region side, […] the technique mentioned in the previous section. The following anti-hCDCP1 mouse-human chimeric antibody clones were evaluated: [0259] mh12A041HCori/LCori, mh14A025HCori/LCori, mh14A043HCori/LCori, mh14A055, mh14A063HCori/LCori, and mh14A091.
[…] It was confirmed by the same Western blotting as that mentioned in the previous section that the full-length hCDCP1 disappeared and only the cleaved hCDCP1 was present in the above-treated Ba/F3-CDCP1 cells. With respect to these cells, a dilution series of anti-hCDCP1 mouse-human chimeric antibodies from 5 μg/mL to 5 ng/mL was prepared, and was then reacted at 4° C. for 30 minutes. As a negative control, a similar dilution series of anti-RS virus antibodies described in the later section was prepared as a non-specific human IgG, and was then reacted at 4° C. for 30 minutes.
A general note: In flow cytometry, cells or beads pass a laser one at a time.

In test [2] the target is T2, crab-eating macaque CDCP1 with N-terminal c-Myc tag (expression vector GS02), on crab-eating macaque … (crab-eating macaque (Macaca …, UniProt Q9H5V8 30-836 (human entry))).
T2 chain: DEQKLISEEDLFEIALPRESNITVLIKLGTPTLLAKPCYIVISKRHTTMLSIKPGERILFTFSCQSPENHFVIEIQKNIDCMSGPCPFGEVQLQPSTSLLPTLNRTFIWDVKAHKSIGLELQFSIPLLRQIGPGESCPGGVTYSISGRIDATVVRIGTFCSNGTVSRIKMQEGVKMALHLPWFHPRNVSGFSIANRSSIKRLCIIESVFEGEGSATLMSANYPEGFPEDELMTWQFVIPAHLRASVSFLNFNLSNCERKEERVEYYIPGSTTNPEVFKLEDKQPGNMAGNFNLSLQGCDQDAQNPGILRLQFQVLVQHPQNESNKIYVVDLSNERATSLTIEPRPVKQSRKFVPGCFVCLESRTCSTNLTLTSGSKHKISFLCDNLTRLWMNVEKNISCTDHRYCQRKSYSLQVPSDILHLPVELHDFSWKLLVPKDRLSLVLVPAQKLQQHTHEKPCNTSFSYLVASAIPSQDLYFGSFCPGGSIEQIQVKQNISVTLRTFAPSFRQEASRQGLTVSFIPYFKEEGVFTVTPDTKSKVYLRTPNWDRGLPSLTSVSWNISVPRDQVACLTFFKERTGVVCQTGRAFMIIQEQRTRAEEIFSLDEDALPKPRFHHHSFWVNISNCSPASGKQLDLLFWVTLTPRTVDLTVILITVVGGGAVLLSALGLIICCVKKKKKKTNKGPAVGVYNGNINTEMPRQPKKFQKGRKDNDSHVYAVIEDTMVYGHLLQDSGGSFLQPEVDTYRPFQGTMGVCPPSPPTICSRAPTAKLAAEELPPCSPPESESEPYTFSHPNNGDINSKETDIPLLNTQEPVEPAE
The test is described as follows: flow cytometry on crab-eating macaque CDCP1-expressing CHO-K1 cells. The source says:
The hCDCP1-expressing CHO-K1 cells and the crab-eating macaque CDCP1-expressing CHO-K1 cells were exfoliated and dispersed using 0.25% trypsin/EDTA (Nacalai Tesque, Inc.), and were then reacted with various concentrations of individual mouse-human chimeric antibodies, namely, mh12A041HCori/LCori, mh14A025HCori/LCori, mh14A043HCori/LCori, mh14A055, mh14A063HCori/LCori, and mh14A091. Thereafter, the binding property of the antibodies was observed by flow cytometry (FIG. 9). As a result, these 6 antibodies all reacted with the crab-eating macaque CDCP1, and in particular, the 5 antibodies other than mh14A055 reacted with both the human CDCP1 and the crab-eating macaque CDCP1 at the same levels.

B1: mh14A091 (antibody, human IgG1, kappa, V domains shown)
VH: EVQLQESGAELARPGASVKLSCKASGYTFTSYWMQWVKQRPGQGLEWIGAIYPGDGDTRYTQKFKGKATLTADKSSSTAYMQLSSLASEDSAVYYCAGYDAPWFAYWGQGTLVTVSS
VL: NIVLTQSPASLAVSLGQRATISCRASESVDSYGNSFMHWYQQKPGQPPKLLIYLASNLESGVPARFSGSGSRTDFTLTIDPVEADDAATYYCQQNNEDPWTFGGGTKLEIKR
notes: mouse-human chimeric antibody of 14A091, human IgG1/kappa constant regions
Take B1: the binding result in test [1] and in test [2] was “binds” in each case.

B2: mh14A055 (antibody, human IgG1, kappa, V domains shown)
VH: EVQLQESGPGLVAPSQSLSITCTVSGFSLTGYGVNWVRQPPGKGLEWLGMIWGDGSTDYNSALKSRLSISKDNSKSQVFLKMNSLQTDDTARYYCARDGYDGAMDYWGQGTSVTVSS
VL: not shown
notes: mouse-human chimeric antibody of 14A055, human IgG1/kappa constant regions
On to B2, for which the binding result in test [1] and in test [2] was “binds” in each case.
